Numbering of substitutions follows the chain as printed.
B1: Avr 5'C biotin hairpin (dsDNA)
DNA: ATCTTAGCACCTGGTTGGAGGGGGTTTATGGGGTTTTCCCCATAAACCCCCTCCAACCAGGTGCTAAGAT
B2: Avr 5'A biotin hairpin (dsDNA)
DNA: B1 DNA with G30T, C41A
B3: Avr 5'G biotin hairpin (dsDNA)
DNA: B1 DNA with G30C, C41G

target: MBP-TALE AvrXa7 NT-βN (synthetic, [XXX]=Y-H); assay: p228, FIG 26; conditions: tags: MBP; label: 5'-biotin; hairpin

Q: Does B1 bind?
A: Result: binds

Q: Does B2 bind?
A: Result: binds

Q: Does B3 bind?
A: Result: binds

From patent publication US20230304022, “CHIMERIC POLYPEPTIDES HAVING TARGETED BINDING SPECIFICITY” (The Scripps Research Institute, published 2023)
